# Residue numbers refer to the chain shown, from its start.
# T1: human GITR-Fc (R&D Systems cat no. 689-GR) (human, UniProt Q9Y5U5 26-161)
# T1 construct: Bought protein; also called GITR (Glucocorticoid-induced TNFR-related); not shown: Fc tag
# T1 sequence (looked up): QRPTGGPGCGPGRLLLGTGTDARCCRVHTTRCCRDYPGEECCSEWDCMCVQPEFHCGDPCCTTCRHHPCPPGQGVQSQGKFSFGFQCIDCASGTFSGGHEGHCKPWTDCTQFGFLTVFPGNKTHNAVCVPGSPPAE
# T2: human OX40-Fc (R&D Systems cat no. 3388-OX) (human, UniProt P43489 29-216)
# T2 construct: Bought protein; not shown: Fc tag
# T2 sequence (looked up): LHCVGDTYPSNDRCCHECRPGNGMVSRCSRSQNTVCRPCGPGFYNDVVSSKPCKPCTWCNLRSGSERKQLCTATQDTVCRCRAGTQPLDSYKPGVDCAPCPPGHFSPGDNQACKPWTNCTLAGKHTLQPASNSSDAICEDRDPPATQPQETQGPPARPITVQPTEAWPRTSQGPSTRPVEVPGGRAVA
# T3: rhesus CD137Fc recombinant protein (Sino Biologicals cat no. 90847-K02H) (rhesus; human, UniProt H9Z8K9 24-186)
# T3 construct: Bought protein; also called rhesus CD137-human IgG1 Fc tagged protein; not shown: human IgG1 Fc tag
# T3 sequence: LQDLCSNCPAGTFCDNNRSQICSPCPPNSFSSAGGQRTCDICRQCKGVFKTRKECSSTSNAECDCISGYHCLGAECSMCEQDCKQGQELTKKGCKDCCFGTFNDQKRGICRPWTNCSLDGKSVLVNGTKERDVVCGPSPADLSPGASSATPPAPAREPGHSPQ
# T4: mouse CD137Fc protein (Acro Biosystems 41B-M5258) (mouse, UniProt P20334 24-187)
# T4 construct: Bought protein; also called mouse CD137 protein; not shown: Fc tag, detected with anti human-Fc
# T4 sequence (looked up): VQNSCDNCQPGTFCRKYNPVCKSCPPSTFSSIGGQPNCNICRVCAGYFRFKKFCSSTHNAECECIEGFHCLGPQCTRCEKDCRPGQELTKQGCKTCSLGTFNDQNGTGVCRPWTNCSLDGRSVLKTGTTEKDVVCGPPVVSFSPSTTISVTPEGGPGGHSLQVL
# B1: Humabody VH 2.2 (VHH)
# VH: EVQLVESGGGLVKPGGSLRVSCAASGFTFSDYYMSWFRQAPGKGLEWVSYISGSGDIIDYADSVKGRFTISRDNAKNSLYLQMNSLRAEDTAVYHCAKEDSRIPGTTDFDNWGQGTLVTVSSHHHHHH
# notes: human single VH domain
# B2: Humabody VH 1.16 (VHH)
# VHH: EVQLVESGGGLVQPGGSLRLSCVASGFTFSNYWMMWFRQAPGKGLEWVANINQDGSEKYFVDSVEGRFTISRDNAKNSLYLQMNSLRAEDTAVYYCARGGDGYSSSHYGTDVWGQGTTVTVSS
# notes: human single VH domain
# B3: Humabody VH 2.20 (VHH)
# VHH: EVQLVESGGGLVKPGGSLRLSCAASGFTFSDYYMSWIRQAPGKGLEWVSHISSSGSTIDYADSVKGRFTISRDNAKNSLYLQMNSLRAEDTAVYYCAREDPRMPGTFDFDNWGQGTLVTVSS
# notes: human single VH domain
# B4: Humabody VH 2.26 (VHH)
# VHH: B3 VHH with A23T, S30T, I37F, S56T, E89D, P101I, F107T
# notes: human single VH domain
# B5: Humabody VH 1.71 (VHH)
# VHH: EVQLVESGGGLVQPGGSLRLSCAASGFTFGNYWMIWVRQAPGKELEWLANINQNGSERYYVDSVQGRFTISRDNAKNSLYLQMNSLRAEDTAVYYCARGGADYSNSHYGMDVSGQGTTVTVSS
# notes: human single VH domain
# B6: Humabody VH 1.75 (VHH)
# VHH: QVQLVESGGGLVQPGGSLRLSCAASGFTFSDYYMSWIRQAPGKGLEWVANINQDGSERYYVDSVKGRFTISRDNAKNSLYLQMSSLRAEDTAVYFCARGGEGYGVDHYGLDVSGQGTTVTVSS
# notes: human single VH domain
# B7: Humabody VH 1.81 (VHH)
# VHH: B6 VHH with S25T, F29L, D31N, Y33W, S35N, I37V, K65E, N77S, S85N
# notes: human single VH domain
# B8: Humabody VH 1.39 (VHH)
# VHH: EVQLVESGGGLVQPGGSLRLSCAASGFTFSNYWMNWVRQAPGKELEWVANINQDESEKYYVDSVKGRFTVSRDNAKNSLFLQMNSLRADDTAVYYCARGGFGYGDSHFGMDVWGQGTTVTVSS
# notes: human single VH domain
# B9: Humabody VH 1.63 (VHH)
# VHH: EVQLVESGGGLVQPGGSLSLSCAASGFTFRSFWMNWVRQAPGKEAEWVANINQDGSEKYYVDSVKGRFTISRDNAKNSLFLQMNSLRAEDTAVYYCARGGPDYGDLHYGMDVWGQGTTVTVSS
# notes: human single VH domain
# Target: T1, human GITR-Fc (R&D Systems cat no. …)
# Assay: ELISA, coated GITR-Fc
# Description: (§1) Specificity of binding for CD137 over the tumour necrosis factor receptor family members OX40 and GITR (Glucocorticoid-induced TNFR-related) was determined using an ELISA assay. Nunc Maxisorp plates were coated with 1 ug/ml human CD137-Fc recombinant protein (Acro Biosystems 41B-H5258), human GITR-Fc (R&D Systems cat no. 689-GR) human OX40-Fc (R&D Systems cat no. 3388-OX) in sodium carbonate buffer overnight at 4° C. then washed twice with PBS. Non-specific protein interactions were blocked by incubation with 1% (w/v) skimmed milk powder (Marvel®) in PBS/0.1% Tween-20 for 1 hour at room temperature. Plates were washed twice with PBS then VH or antibody control (1 ug/ml) added for 1 hour at room temperature. Following three washes with PBS/0.1% Tween-20 a 1:1000 dilution of anti His-HRP (VH detection) or anti mouse-HRP (positive control mouse monoclonal antibody detection) was added in 1% Marvel/PBS/0.1% Tween-20. The detection antibodies were allowed to bind for 1 hour at room temperature then the plates were washed twice in PBS/0.1% Tween-20 and once in PBS. The ELISA was developed using TMB substrate and the reaction was stopped by the addition of 50 ul 0.5M H₂SO₄ solution. The absorbance at 450 nm was measured using the BMG Pherastar.
row,binding result,Binder
1,no binding (tested: 1 ug/ml),B1

# Target: T5, human CD137-human Fc chimeric protein (Acro Biosystems cat no. 41B-H5258) (human, UniProt Q07011 24-186)
# T5 construct: Bought protein; The Octet Protein G and Biacore experiments name no catalogue number; also called human CD137Fc recombinant protein; human CD137-Fc recombinant protein; not shown: human IgG1 Fc tag
# Assay: BLI (Octet RED384), CD137-Fc on Protein G sensors, 1:1 model
# Description: Binding kinetics of purified VH, bivalent VH and trivalent VH molecules were measured on a ForteBio Octet RED 384 instrument. CD137-Fc tagged protein was diluted to 3 μg/ml in kinetics buffer (0.1% BSA, 0.02% Tween, 1×PBS) and coupled to Protein G biosensors (ForteBio cat no. 18-5082) via the Fc tag. VH were serially diluted (typically 1:2 dilution series starting with 50 nM, VH at the highest concentration) and binding to the CD137-Fc-coupled Protein G biosensors measured. Binding kinetics were determined from the (blank subtracted) sensor gram trace using 1:1 binding models and ForteBio Octet Data Analysis 9.0 software. Example kinetic and binding affinity data obtained is shown Table 10 (monovalent VH) and FIG. 1 (bivalent and trivalent molecules).
Kd [nM],koff [s⁻¹],kon [M⁻¹ s⁻¹],Binder
2.4,0.00145,610000,B2
1.2,0.002,1.64e+06,B3
4.7,0.00842,1.8e+06,B4
0.091,2.84e-05,313000,B5
0.75,0.000353,474000,B6
0.16,0.000171,1.06e+06,B7
0.9,0.000505,559000,B8
2.8,0.000596,217000,B9

# Target: T6, CD137 on pre-stimulated human CD8+ T cells (human, UniProt Q07011 24-255)
# T6 construct: also called pre-stimulated CD8+ cells; primary T cells
# T6 sequence (Q07011 24-255 limits assumed): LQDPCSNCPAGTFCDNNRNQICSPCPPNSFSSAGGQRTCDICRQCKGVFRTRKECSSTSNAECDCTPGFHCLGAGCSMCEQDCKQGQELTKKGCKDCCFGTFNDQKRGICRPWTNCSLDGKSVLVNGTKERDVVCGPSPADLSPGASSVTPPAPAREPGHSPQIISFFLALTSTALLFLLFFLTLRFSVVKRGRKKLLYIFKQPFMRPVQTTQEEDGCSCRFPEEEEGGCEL
# Assay: flow cytometry, PMA/ionomycin-stimulated human CD8+ T cells, mean of 2-3 donors
# Description: Binding to primary T cells was measured using flow cytometry. Peripheral blood mononuclear cells (PBMCs) were isolated from human blood by density gradient centrifugation then CD8+ T cells purified using a negative selection isolation kit according to the manufacturer's protocol (Miltenyi Biotech cat no 130-042-401). T-cells were stimulated PMA/Ionomycin for 48-72 hours in RPMI media supplemented with 10% FBS, 2 mM Glutamine, 1× Pen/Strep. Cells were transferred into 96 well plates, blocked for 10 mins with staining buffer (PBS/1% BSA/0.05% Sodium Azide) then incubated with serially diluted VH in staining buffer (PBS/1% BSA) for 30 mins-1 hour at 4° C. Cells were washed by centrifugation then VH binding detected using Anti His antibody (Millipore 05-949) and Goat Anti Mouse Alexa Fluor-488 (Jackson ImmunoResearch cat no. 115-545-071). A Live Dead near IR stain (Molecular Probes cat no. L10119) was used for discrimination of live cells. After further washing cells were fixed and fluorescence measured by flow cytometry.
row,EC50 [nM],Binder
1,0.74,B1
2,2.8,B4

# Target: T2, human OX40-Fc (R&D Systems cat no. …)
# Assay: ELISA, coated OX40-Fc
# Description: as §1
row,binding result,Binder
1,no binding (tested: 1 ug/ml),B1

# Target: T3, rhesus CD137Fc recombinant protein …
# Assay: HTRF binding assay
# Description: (§2) Binding to human CD137Fc recombinant protein (Acro Biosystems 41B-H5258), rhesus CD137Fc recombinant protein (Sino Biologicals cat no. 90847-K02H) and mouse CD137Fc protein (Acro Biosystems 41B-M5258) was measured using an HTRF Binding assay format. All reagents and serially diluted VH were prepared in assay buffer containing PBS, 0.1% BSA and 0.4M Potassium Fluoride. Samples or assay buffer (non-specific binding) were incubated with 0.5 nM human, rhesus or mouse CD137, 1 nM Anti human-Fc Cryptate PAb (Cisbio cat. no. 61HFCKLB) and 20 nM anti His-D2 (CisBio cat no 61HISDLA) in black 384-shallow well assay plates for a minimum of 3 hours at room temperature. Time-resolved fluorescent emission at 620 nm and 665 nm was measured following excitation at 337 nm on the BMG PHERAstar plate reader. The HTRF ratio were calculated ((665 nm emission/620 nm emission)*10000) and the data corrected for (non-specific binding) to give the specific binding signal. VH bound to human and rhesus CD137 but not to mouse CD137 protein.
row,EC50 [nM],Binder
1,0.56,B1

# Target: T5, human CD137-human Fc chimeric protein …
# Assay: HTRF binding assay
# Description: as §2
row,EC50 [nM],Binder
1,0.91,B1

# Target: T4, mouse CD137Fc protein (Acro Biosystems …)
# Assay: HTRF binding assay
# Description: as §2
row,binding result,Binder
1,no binding,B1

# Target: T7, human CD137 expressed on the surface of CHO cells (human, UniProt Q07011 24-255)
# T7 construct: Also used for the Jurkat reporter cells that express human CD137 (functional rows); also called CHO human CD137 cells; CHO huCD137
# T7 sequence (Q07011 24-255 limits assumed): as above
# Assay: FMAT, CHO human CD137 cells
# Description: Binding of His-tagged molecules to CHO human CD137, CHO parent, CHO human PSMA, DU145 PSMA and DU145 parent cells was assessed using Fluorescence Microvolume Assay Technology (FMAT). All reagents were prepared in FMAT assay buffer (pH 7.4) containing PBS, 0.1% Bovine Serum Albumin, 0.05% Sodium Azide. Serially diluted samples were transferred into 384 well black clear-bottomed assay plates (Costar cat. no. 3655) and incubated for a minimum of 2 hours at room temperature with 1.5 nM Anti-His (Millipore cat. no. 05-949), […] Goat Anti-Mouse Alexa Fluor-488 (Jackson ImmunoResearch cat. no. 115-545-071) and 2000 cells/well pre-stained with DRAQ5 (Thermo Scientific cat. no. 62251). Fluorescence emission was then measured on the TTP Mirrorball plate reader in the FL2 (502 nm-537 nm) and FL5 (677-800 nm) channels following excitation at 488 nm and 640 nm. Data was gated on FL5 perimeter and peak intensity and the FL2 median mean fluorescence intensity of the gated data used for determination of VH binding. Monovalent CD137 specific Humabody® VH, bispecific and trispecific molecules with a CD137 binding arm bound to CHO CD137 expressing cells. Monovalent PSMA specific Humabody® VH, bispecific and trispecific molecules with a PSMA binding arm bound to PSMA expressing cells.
row,EC50 [nM],Binder
1,0.18,B1
2,0.18,B4

# Target: T7, human CD137 expressed on the surface of …
# Assay: FMAT ligand inhibition, CD137 Ligand on CHO human CD137 cells
# Description: In parallel to the binding assay, periplasmic extracts were tested for their ability to inhibit the interaction of human CD137 ligand protein with CHO human CD137 cells in an FMAT format. Total binding controls containing diluted periplasmic extract sample buffer and non-specific binding controls containing excess non-Fc tagged competitor were set up on each plate for data normalisation. Fluorescence signal was measured using the TTP Mirrorball and the FL2 median mean fluorescence intensity of gated used for the data normalisation. The data was expressed as a % of the total binding control (% control) after subtraction of the background signal determined from the non-specific binding control wells.
# The ability of purified Humabody VH to inhibit the binding of CD137 Ligand to CHO human CD137 cells was measured in the FMAT ligand inhibition assay essentially as described in Example 6. VH inhibited the binding of human CD137 Ligand to human CD137.
row,IC50 [nM],Binder
1,1.7,B3
2,8.5,B4

# Reference: patent US20200362047A1 (CRESCENDO BIOLOGICS, published 2020)
